Source: US20100047170

Key:
[1] = biological target: DQ Bovine Serum Albumin, fluorescent quenched (UniProt P02769)
[2] = test system: DQ Gelatin from pig skin, fluorescein conjugate (Invitrogen)
[3] = biological target: DQ collagen, type I from bovine skin, fluorescein conjugate (Invitrogen) (UniProt P02453)
[4] = test system: DQ collagen, type IV from human placenta, fluorescein conjugate (Invitrogen)

Measured: hydrolysis of FITC-quenched protein (fluorescence increase)

DQ collagen, type I from bovine skin, fluorescein conjugate (Invitrogen), sequence (P02453 162-1217, chain 1 of 2): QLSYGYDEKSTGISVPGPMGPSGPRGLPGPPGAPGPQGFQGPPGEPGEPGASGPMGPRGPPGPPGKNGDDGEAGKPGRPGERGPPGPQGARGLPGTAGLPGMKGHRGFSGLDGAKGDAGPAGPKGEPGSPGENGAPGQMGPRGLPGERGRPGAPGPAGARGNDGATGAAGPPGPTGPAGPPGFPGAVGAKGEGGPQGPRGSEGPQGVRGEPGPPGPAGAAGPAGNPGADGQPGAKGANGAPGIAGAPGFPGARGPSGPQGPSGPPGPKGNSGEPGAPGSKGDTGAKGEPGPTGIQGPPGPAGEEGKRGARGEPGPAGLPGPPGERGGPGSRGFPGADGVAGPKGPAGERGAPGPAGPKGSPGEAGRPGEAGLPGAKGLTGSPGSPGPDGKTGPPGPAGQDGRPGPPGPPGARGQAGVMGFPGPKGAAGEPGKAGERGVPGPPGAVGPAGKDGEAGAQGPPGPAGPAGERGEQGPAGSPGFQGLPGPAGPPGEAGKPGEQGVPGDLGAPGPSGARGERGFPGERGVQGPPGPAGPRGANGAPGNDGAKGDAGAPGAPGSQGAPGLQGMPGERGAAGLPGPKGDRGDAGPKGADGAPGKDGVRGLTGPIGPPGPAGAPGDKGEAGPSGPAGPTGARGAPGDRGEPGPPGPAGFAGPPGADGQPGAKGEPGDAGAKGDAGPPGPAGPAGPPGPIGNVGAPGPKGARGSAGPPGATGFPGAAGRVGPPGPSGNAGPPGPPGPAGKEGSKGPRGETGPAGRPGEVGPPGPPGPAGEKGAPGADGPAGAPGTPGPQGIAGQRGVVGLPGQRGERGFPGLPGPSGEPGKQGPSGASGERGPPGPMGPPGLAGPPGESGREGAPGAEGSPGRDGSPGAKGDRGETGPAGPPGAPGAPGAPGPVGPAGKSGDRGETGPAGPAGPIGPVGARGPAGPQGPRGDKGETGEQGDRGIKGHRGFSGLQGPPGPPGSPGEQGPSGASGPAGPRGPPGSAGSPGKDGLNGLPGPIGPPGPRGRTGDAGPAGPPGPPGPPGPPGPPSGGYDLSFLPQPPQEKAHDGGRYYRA
DQ collagen, type I from bovine skin, fluorescein conjugate (Invitrogen), sequence (P02453 other isoform, or with tags, fused parts or gaps, chain 2 of 2): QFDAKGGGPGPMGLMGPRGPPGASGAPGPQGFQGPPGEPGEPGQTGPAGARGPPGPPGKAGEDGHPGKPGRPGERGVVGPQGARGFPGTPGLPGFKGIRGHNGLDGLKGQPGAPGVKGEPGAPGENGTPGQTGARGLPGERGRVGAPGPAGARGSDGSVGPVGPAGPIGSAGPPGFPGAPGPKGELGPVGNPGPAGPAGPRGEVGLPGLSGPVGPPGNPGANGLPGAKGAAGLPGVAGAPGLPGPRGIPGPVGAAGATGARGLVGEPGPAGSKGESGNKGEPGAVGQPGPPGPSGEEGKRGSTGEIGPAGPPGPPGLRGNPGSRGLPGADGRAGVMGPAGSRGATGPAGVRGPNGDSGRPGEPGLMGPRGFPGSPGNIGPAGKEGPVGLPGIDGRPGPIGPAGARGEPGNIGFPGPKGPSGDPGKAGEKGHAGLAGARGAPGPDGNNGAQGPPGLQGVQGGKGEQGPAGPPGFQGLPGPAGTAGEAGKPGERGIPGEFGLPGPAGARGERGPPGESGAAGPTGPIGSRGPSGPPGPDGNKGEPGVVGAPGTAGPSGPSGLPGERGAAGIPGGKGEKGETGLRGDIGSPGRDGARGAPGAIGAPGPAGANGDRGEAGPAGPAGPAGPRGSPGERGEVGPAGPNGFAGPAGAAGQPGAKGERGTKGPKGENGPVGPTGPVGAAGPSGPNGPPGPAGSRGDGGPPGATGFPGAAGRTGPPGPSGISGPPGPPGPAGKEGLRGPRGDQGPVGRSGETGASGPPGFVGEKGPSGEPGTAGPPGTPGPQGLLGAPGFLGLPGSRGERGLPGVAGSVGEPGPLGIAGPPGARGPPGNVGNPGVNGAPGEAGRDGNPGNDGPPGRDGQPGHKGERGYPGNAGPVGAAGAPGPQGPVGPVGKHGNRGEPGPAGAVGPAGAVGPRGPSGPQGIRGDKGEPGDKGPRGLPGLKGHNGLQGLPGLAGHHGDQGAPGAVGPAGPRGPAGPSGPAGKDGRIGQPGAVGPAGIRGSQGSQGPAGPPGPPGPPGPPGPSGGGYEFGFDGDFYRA
DQ Bovine Serum Albumin, fluorescent quenched, sequence (P02769 25-607): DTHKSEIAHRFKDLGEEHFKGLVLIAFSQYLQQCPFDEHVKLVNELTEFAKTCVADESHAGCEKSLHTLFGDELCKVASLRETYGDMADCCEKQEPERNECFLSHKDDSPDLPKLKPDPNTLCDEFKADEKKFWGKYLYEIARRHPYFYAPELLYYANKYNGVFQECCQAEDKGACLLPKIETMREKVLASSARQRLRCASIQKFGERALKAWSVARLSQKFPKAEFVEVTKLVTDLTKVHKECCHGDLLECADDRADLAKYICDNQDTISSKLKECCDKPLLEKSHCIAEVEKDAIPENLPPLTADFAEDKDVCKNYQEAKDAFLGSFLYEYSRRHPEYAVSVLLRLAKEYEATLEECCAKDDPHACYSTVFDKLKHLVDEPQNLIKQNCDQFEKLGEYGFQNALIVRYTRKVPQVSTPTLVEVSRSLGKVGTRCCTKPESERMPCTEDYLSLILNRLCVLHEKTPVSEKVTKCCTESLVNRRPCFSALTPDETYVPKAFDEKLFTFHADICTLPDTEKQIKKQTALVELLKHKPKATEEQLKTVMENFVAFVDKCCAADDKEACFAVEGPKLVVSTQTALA

His tagged extra cellular domain of Prostate Specific Membrane Antigen (PSMA), purified from S2 cells
no digestion of any of the proteins: all assays above
